For 14 sequences, protein production results are on record in a protein production outcome set (Wang et al. 2014).

This data set can be described thus: label from the status in PepcDB records.
On to “MTNKQKMRKRRRALLCVFAAFAFSFNPLGKIAYATPKQDTSVVNYVKTQEETSNSIQNQPISSYWYPEDLLKWSANNDKDAKFNKSTVPLAKRVEKDKLDTINDTQNKDVKVVAISIMNANTSGNPSQGSNKFSANTFSYWQYIDKLVYWGGSAGEGLIVPPSPDVTDSAHRNGVPVLGTVFFPMTAHGGKMEWLNKFLEKDANGNFPIVDKLIEVAENYGFDGWFINQETEGTEQEPLTPEHAKLMQELIKQFKAKSNGKFEIMWYDSMTKDGDMDWQNALTDKNEYFLLDGDKNKVADSIFLNFWWTYNSLKDKDLLRVSNEKAKEIGINPYDLYAGIDVQANGYKTPLRWTHYQRDDQAPFTSLGLYCPSWTYFDAKTPEQFQENENRLWVNEHGDPSKTTNAQGVDWRGISTYSVEKSAVTSLPFTTNFNIGNGYDFYVDGNKVSTQDWNNRSLNDIMPTYRWVISNEENNNVKADIDYTTAYYGGNSIKLSGYLAEGKASTIKLYSSDLTLPEGVQFTTTAKANGNTVDMDLVLTFHDGTETTISADKKLGTDWTKLNYDVSPYVGKSIKTISYKLSSPVCVDNFSANLGNITIEIPNSSSKVNISNAKLNDVDFKDGIYAGARLSWSPEGNSSDVHHYEIYRVMNDGTKVLLGATPNTSYYVSDLRRNDKETNTNFEVVAVNKNFNRGNSQSINMEWPAYPAPTASFKVSNTLIAPGQSVTFTNTSSEVTEEIQWKFPGAKVESSTEQNPTVTYEKEGVYPVILTAKNSSGENVETKTELITVTNAAKDGLVNLSLNKSAKASSFVNENEAPQYALDGNVKTKWCAVGSAPHTLTIDLGDIKTIGELEISHAEAGGESSGMNTKAYSFEVSNDGENFTPVLNVDDNTKAISNDAFPVTKARYVRLNIIQPTQGADSAARIYEVAVKGLDGNVDLPPVMNPDDSNKPVDPDQPENPDKPNNPEKPENPDNPGNTDKPVNPDQPGDSEKPETPNKPGDTENPEGKPANPSDLVSKEITENSALLSWKAPEKVESIQEYVVYQDGKEIGRVPTDKTPLEFLVKDLKPNTKYNFEVSSIDKDGKESDKISLEVTTKKKDNGNLPNTGSPIGAGALATTGIALSSAGVYLTLKKKRK”, for which the protein production result is “failed”.
“MTNLFLGFLVISFCLLGNLIHAADGSIHDYNNSGGFTKIANARYFVGGSEGIYGSEFLDVHHASSDTPLLKGNSFIRFDDITFVRTKESASKQNSTLAAAGLVEAILFEVKQRDRVGGSFFKSEDMCCTPKLADAGSCNLGEVMISADPNDPEWPKRIPTFFKRGEEEVKMSPEAVIIKKTGLYTVYFMTCDPELDGATIRGRTVWKNRGGYLQGEKAPLKKFYASMLLAYVVLGLVWFPQVAQYWKDGIQLHSHINFVIAFTMGELAFLYLDFVYLDSAGTSPMEVTVWAITLSSMRKALSRLLLLVISSGFGIVRPTLGGITLKMLLIGVLCFVISESLGLAMQFGNISENGMNYLMLSWAILETCFIQWIFRSLSKTLKKLKLNKRNITKLQLYKMFATVLVIMVVLSFAWIYVEVYLYSSLSQFWKVKWIVPTLWYILSYAMLVLICLFWPPSEKPMRYLYVADMEEETEEEDDLSTAETGMNATKAEYERSERKTLLEAFILLLGNIPGEK”: the protein production entry is “failed”.
As to “MTNMRQVLKTDRLVLEPQSMARFDQWFAMERQRDEAGHRDLTEDQAWLRLCARQGMWDAYACGFYYLLDPVSGEMRGEAGFQFRRRGFGPGFDNHPEAAWAVASAHQGRGLAAEAMQALLAHHDRSSGRQRVVALIARSNLPSLRLAERLGFRGYSDVAFDGAAHLLLERAG”, the protein production entry is reported as “not failed”.
With “MTNNAKKEPQQRGKHQVHNVRFYTIKPREIVSLAYSKSSKCLALSRATPVIELWNLEHAPYLDRVIHLPTDSHVESIAWAGNRLFSVDLSGKLIEWDVIKLKQRYEHSPTGNALWSIDVNPAETDIAIGSEEGHINILSIENDEITYKSLFNKQKGRVLCIKFDKTGTKLVTGTEGFVRIWNVLKGTTLHTMTLSEKNVIVWSLQVLSDNTIIAGDSAGFVTVWDADNATQIDSTRVLDKNVFALAVNNKEDRLVCSGMQPPLIRIFSKTKIKREESTSERWIKFLQRDAHKHYVKSLLVIDDQIYSGGRDGILTITSSERMQAHLSQHAPFLKGSVASMAISKKLLLLRYPNSVHLWRLGSVAPQGEDKKKPWALPVGHTEEQLLELPPQKLLQLNVKEHNFIQSAAISSDANWICYSTLKELRISRLKSDPLQVERLVDDLPEELQPASHIIFTKQGDLVLLNPQNNHLSWFTLEEDLVTFKYTIDLSEKCKNTISHVVISSHGEYIVAASSDHIISVWKLHGKQYKHLLNLPRHRAGTTALSMHEDYPRVVVAYANGQLVEYDLVNRIFTCETNEYLIPETRRHCINGISLDPQNRNIFIVHTEGNLYVLERDQHLDPKELVSNSKSKKLSNGNRSSVDGGSKGLSLKTTLSRQHLVHVSRLSPNELVNVSISTNNLLAPLPPPYQRKKFGAS” the entry was “failed”.
With “MTNTHEINALKKYVRATNFLATSQIYLKQNVLHKRPLAHSDIKPRLLGHWGTCPGINFVYANINRLIVKHNRPFIYLVGPGHGFPAVQANLFIEGSLSHFYPETIPYNETGIEDICKKFSAAYGYPSHANPEAPGQILEGGELGYSLSVGWGAVLDNPDLIATVLVGDGESETGPLAASWYANRLVSPATNGAVLPIVHINGYKISGPTRMGRMSHEELDLEFRGLGYHPIIVDSEAEEDVYIQMATAMDTAYSMINDIQTRARKGEDIVK” the entry was “failed”.
The value for “MTPASAVPAHPCPPGPNALRRRLLQAALSTGVLASIGTAAPAAASAHATSTPSKPMDLYAYVGSRTTRERNARGDGISVFRVDTQTGGLAPVQLVKDLVNPSFLALNPAGDRLYTVHGDLADISAFAVDRASGRLSFINRQSTQGKNPVHLALDPSGRFVVVTNHIGASLAVLPLAADGALGEVTQLVKLDGPIGPHRIEQKQAKPHFNRFDPAGRFVIVPDKGLDRTFAFRFAEGRLTPATPSFVSAREGAGPRHVAFRPDGRVAYVVNELDSTVTTYGYDAGTATLTPLQVLPSLPDTFTGNSRASEIKVDAAGRFVYASNRGHDSIAVFRIDAASGLLRFVAAEPSLGRTPRFFTIAPGGRFLYALNEDSDSIVAFAIDPHTGRLHPTGTRAQSGSPVCMVFSTPAA” was “failed”.
On to “MTPDDFDRFWPTFQAIVQARETYAFDPALSFEQARQLWLELPLHTLLAEEDGELLGSYYLKPNAAGPGAHVGNCGYMVCEQARGRGVARLMCEHSQKLARQEGFLALQFNSVVASNEVAVALWHKLGFETVGRLPKAYRHARLGLVDCLVMYKWLAD”, for which the protein production entry is on record as “failed”.
Turning to “MTPEQLMSLRATFRSPRRLLTESLAGLVVALALIPEAIAFSVIAGVDPRIGLFASFTMGVVTAIVGGRPAMISAATGAVALVIAPVMKEHGLDYLIATIILAGVFQIILAVLGVTKLMRFIPRSVMIGFVNALAILVFMSQMPELFDVPWMVYPIVVVGLVIVFGLPRITTAIPAPLVAIVAITLVTVLGNVDVPTVSDKGELPDSLPGFFLPNVPLNLETFQIIAPFALSMALVGLLESLMTAKLVDDITDTRSNKTRVSWGQGAANIVTGFLGGLGGCAVIGQTMINVKGSGARSRLSTFLAGVFLLILVVVLGDVVGMIPMAALVAVMIFVSLITFDWHSIRPSTLKRLPKSETAVMLITVAAVVATHNLAVGVGVGVVTAMVLFARRVAHFATVERTELELNGERVATYTVDGELFFASSNDLYTQFDYAKDSSDGIDRVIIDLHGSHIWDASTVAVLDSVTEKYRNHGREVEFIGLNEASVRMRERLAGKLNS”, the protein production result is listed as “failed”.
The value for “MTPFENLSELPAQNTRFNGRAGMGTWLVNRLLNNIERGRLRVTLPGGGTIEKSGHQEGSEAILMLHNWRAIRRVLVNGDIGFAEGFIENDWSTPDLTALIRFAAQNQDAFARSTRGSLPMRLINRMAHALNANTRRGSRRNIEAHYDLGNEFYRQWLDPSMLYSSAIFDDTTPTLEAAQRKKLERIAEKLQLTGNNSVLEIGCGWGALAIHLATQQNADVTGITLSPSQLRWAENAAEKESKAGRIDLRLQDYRDVQGQFDNIVSVEMFEAVGESYWPSYFEMLKRCLKPGGRAVLQIISIDESRFDTYRRKADFIQKYVFPGGFLPSDSALEKSVGQAGLKLTETELFGQSYALTLAEWRQRFHARWQTISLLGFDERFRRLWDYYLCYCEAGFAEGTINVGLYTIEHG” was “failed”; that for “MTPLVSRLSRLWAIMRKPRAAVGSGHRKQAASQEGRQKHAKNNSQAKPSACDGLARQPEEVVLQASVSSYHLFRDVAEVTAFRGSLLSWYDQEKRDLPWRRRAEDEMDLDRRAYAVWVSEVMLQQTQVATVINYYTGWMQKWPTLQDLASASLEEVNQLWAGLGYYSRGRRLQEGARKVVEELGGHMPRTAETLQQLLPGVGRYTAGAIASIAFGQATGVVDGNVARVLCRVRAIGADPSSTLVSQQLWGLAQQLVDPARPGDFNQAAMELGATVCTPQRPLCSQCPVESLCRARQRVEQEQLLASGSLSGSPDVEECAPNTGQCHLCLPPSEPWDQTLGVVNFPRKASRKPPREESSATCVLEQPGALGAQILLVQRPNSGLLAGLWEFPSVTWEPSEQLQRKALLQELQRWAGPLPATHLRHLGEVVHTFSHIKLTYQVYGLALEGQTPVTTVPPGARWLTQEEFHTAAVSTAMKKVFRVYQGQQPGTCMGSKRSQVSSPCSRKKPRMGQQVLDNFFRSHISTDAHSLNSAAQ” was “failed”; that for “MTPMPSSVKPVEGRSVLIEWQDGHSSLYENVYLREHCQCAECVHEWTGEKLISRERIPADIRPVSVSAVGNYALSIRFSDGHGTGVYSYELLRKICPCPLCKA” was “failed”.
Regarding “MTPNEDLIEIFEDEEISPSLTAKTWPILIVDDDQDVHDVSRLALRGVRLLDYDLETLHAYSAAQARAILSSRSDIAVALLDVVMEREDAGLDLVRWIRSDPARDLLRIVLRTGQPGYAPEATVIQDYDINDYRTKSELNRGRLISILTTALRSYRQMAVIAASRDGLDKIVRASADLLASPSMAIFAEGVLTQLAGLLGTERSGIVLARRNRRPGATASMAMTGDEGFVLAAAGPLSADIGRPLSDIGDHQTAEILRRTLESRRSSFDHGSMALYIATPNGDSLAVLMEVAKTLGDTDRKLVEVFCVNMAAGFDTISLFEQISLQAFHDEATGLPNLAACQSLIDQYLQRRQPVAVTFFSLEGFSAISDTLGRVIGDRMIGLLANAFRHRLQERGEVFRVGQETLATVIGGPVDQVGPLADQLAGDFRAGLPLDSMTLPVSFSHGTSVSTSEHDTAQILVQRAGIAMQKARNIKRGGGLTYAVAMEEEIRAHIGVISKLGAGVVSEAFVAVFQPKIRLADRSCHGGEALVRWRDGDGTMIAPSLFIPAAETSGHIVDIGYSVFRQSCAMIRSLKVSQDDARIAVNLSVRQMREPDLIDKLVSIAAEEGVATTRLKLEITESIVIDDLTHTVSLLKALKDKGFLLALDDFGTGYSSLSYLRSLPIDTLKIDRSFVSGLAEQADMRKIVGLIIGLGHELGFDITAEGVETEEEARIVTEMGCFTAQGYLFSKPLSAEDFLVFARTHAGARQTSGGSLSAEGCIRARDA”, the protein production result is recorded as “failed”.
As for “MTPQNTIARELLFLALLSTLWAASYTFIKIGVETIPPLTFIAARTLIAGLLLLVVIRLRGLRLPRDPATWRLFFVQACINSVLPFTLIAWAEQSIDAGLAVILNATTPIFTFLLTALVIRHETVSGRKLFGTIAGMTGVCLIIGVEALGGAGEAIWSQLAVLTAAFSYACAAIFSKNFKGLDPVMPAAGSLICGAVLLLPVSLIVDRPWTLSPSAASLTALVCLSVFSTALAFMIYFRLMQTLGSVGTTSQAYLRVPVGVAIGMVFLGEVPTSAMWVGLVCVIAGVLAMTLPSRRRPATQGG”, the protein production entry is reported as “failed”.
With “MTPQRATLTGMLAIILWSTSVGLIRSLTEALGPIGGAAMIYSTSTLCLLVFYGLPRIKTLPRIYLFAGGALFVCYEIFLSLSIGLADSRMQAMEIGMINYLWPSLTILFSLFINQQKSRFLLWPGLVISLGGIVWIMKGESDWTPELLWNNILANPLAYSLAFSAALTWALYCNITKRYGQGKSGVSLFFFIASLVLWIQYSFSAEGPISLTLPSSLELLFMGASAALAYSAWNAGIQYGNLTLLATASYFTPVLSTLLAAIWLNITPAISFWQGVAMVTAGSLLCWYATRSSTR” the entry was “failed”.
